Results taken from paper PMC8961594.

Experiments:
[1] = molecular target: Histone 2B (H2B) on the surface of HUVECs (human (endogenous in HUVEC)) (UniProt P62807)
[2] = molecular target: Histone 2B (H2B) on the surface of HUVECs (human (endogenous in HUVEC)) (UniProt P62807); remark: listed apart in the source

- Plg-mediated migration of HUVECs in Boyden chambers: decrease by anti-H2B against Plg-treated cells with control mouse IgG (Figure 3B) [1]: 50%
- migration of Plg-treated (200 nM) HUVECs in Boyden chambers: decrease by Fab of the anti-H2B mAb (20 µg/mL) against control mouse Fab (Figure 3A) [2]: 47%
Substance: Human Glu-plasminogen (ligand)
